Measurements from patent publication US20070042353A1, “HCV polymerase suitable for crystal structure analysis and method for using the enzyme” (Japan Tobacco Inc., priority 1999, published 2007).
Where no end group is shown, it is not given here.

Legend:
[1] = tested on: HCV polymerase; assay: Measurement of the HCV polymerase activity (3H-UTP incorporation into template RNA); type: biochemical, HCV-BK strain; conditions: radioactivity of the NS5B591 enzyme reaction as standard; polymerase 1 μg/ml, 25° C., 90 min
From the text: The DNA fragment (148 bp) containing polyU and 3′ X sequence was completely synthesized using synthetic primers designed based on the sequence of the 3′ untranslational region of the HCV genome, and cloned into plasmid pBluescript SK II (+) (Stratagene). The cDNA encoding the full length NS5B prepared in the same manner as in Example 1 was digested with restriction enzyme KpnI to obtain the cDNA fragment covers the region from the restriction enzyme cleavage site to the stop codon. This cDNA fragment was ligated to the upstream of 3′ untranslational region DNA of pBluescript SK II (+). The DNA insert of about 450 bp in total was used as a template for preparing the template RNA. The plasmid was cleaved just after 3′ X sequence, circulated, treated with phenol/chloroform, and purified by ethanol precipitation to recover the DNA.
Using the purified DNA as a template, utilizing the promoter in pBluescript SK II (+), RNA was synthesized by the run-off method using MEGAscript RNA synthesis kit (Ambion), and T7 RNA polymerase (at 37° C. for 3 hours). DNaseI was added thereto and further incubated for 1 hour, and the template DNA was decomposed and removed to obtain the crude RNA product. The crude product was treated with phenol/chloroform, and purified by ethanol precipitation to obtain the desired template RNA. After confirming the quality of the RNA by agarose gel electrophoresis, the RNA was stored at −80° C. The RNA is a template suitable for the highly sensitive measurement of the polymerase activity. […]
The reaction was terminated by adding 10% trichloroacetic acid at 4° C. and 1% sodium diphosphate solution (150 μl) to the reaction mixture, and kept in ice for 15 min to precipitate the RNA. […] A liquid scintillation cocktail (Packard) was added to the RNA synthesized by the enzyme reaction, and the radioactivity of the RNA was measured by a liquid scintillation counter.
The activity of the HCV polymerase was calculated from the value of radioactivity in the enzyme reaction of each NS5B using the radioactivity in the enzyme reaction of NS5B591 as a standard.

[2] = molecular target: T1, NS5B544 (Hepatitis C virus genotype 1b, UniProt P26663); assay: HCV polymerase-inhibitory activity of synthetic peptide, pre-incubated with NS5B544; type: biochemical, HCV-BK strain; conditions: final concentration of 30 μM; pre-incubated with NS5B544 at 25° C. for 30 minutes
T1 construct: residue 1 (Ser) of the NS5B, a C-terminal amino acid residue of X′ is any one of amino acid residues 531 (Lys) to 544 (Gln); made in house; host or cells: E. coli
Procedure: The reaction mixture with the composition mentioned below (30 μl) was reacted at 25° C. for 90 min. • Reaction mixture: the HCV polymerase obtained in Example 1 (1 μg/ml), the template RNA obtained in Example 5 (10 μg/ml), ATP (50 μM), GTP (50 μM), CTP (50 μM), UTP (2 μM), [5, 6-^3H] UTP (46 Ci/mmol (Amersham), 1.5 μCi), 20 mM Tris-HCl (pH 7.5), EDTA (1 mM), MgCl2 (5 mM), NaCl (50 mM), DTT (1 mM), BSA (0.01%).
The reaction was terminated by adding 10% trichloroacetic acid at 4° C. and 1% sodium diphosphate solution (150 μl) to the reaction mixture, and kept in ice for 15 min to precipitate the RNA. The RNA was trapped on a glass filter (Whatman, GF/C) by suction filtration. The filter was washed with a solution containing 1% trichloroacetic acid and 0.1% sodium diphosphate, then with 90% ethanol, and dried. A liquid scintillation cocktail (Packard) was added to the RNA synthesized by the enzyme reaction, and the radioactivity of the RNA was measured by a liquid scintillation counter.
Next, a synthetic peptide was prepared by a conventional method and its HCV polymerase-inhibitory activity was assessed. […] The synthetic peptide and NS5B544 were pre-incubated at 25° C. for 30 minutes, and the polymerase activity was measured in the same manner as in Example 5. […]

Substance	relative activity (%) [1]	inhibition of the polymerase activity [2]
NS5B531: consecutive amino acid sequence 1-531 of NS5B with histidine tag	2149%	
NS5B544: consecutive amino acid sequence 1-544 of NS5B with histidine tag GSHHDHHH	2014%	
NS5B536: consecutive amino acid sequence 1-536 of NS5B with histidine tag	2107%	
KDLSGWFK [positions 546 to 551 of HCV polymerase NS5B with a Lys residue attached to both ends]		40 to 50%
